Measured values as given in patent US9872887B2, “Extracellular matrix-binding synthetic peptidoglycans” (Purdue Research Foundation, priority 2013, dated 2018).

Experiment: Rheological measurements on bovine vitreous
Conditions: trypsin treated vs no treatment and PBS buffer; FIG. 3A
Text: The synthetic peptidoglycans according to the present disclosure can be tested as follows. Viscoelastic properties can be measured using a rheometer, for example the TAInstruments ARG2 rheometer. A cone and plate geometry or a parallel plate geometry can be used. Vitreous humor (e.g., bovine) can be placed within the geometry. The temperature can be controlled and frequency sweeps can be performed from ranges of about 0.1 Hz to about 100 Hz (e.g., 1 Hz) and storage, loss, and complex modulus can be measured at an oscillatory shear stress between about 0.1 Pa and about 10 Pa (e.g., 10 Pa). Temperature: 37° C.

**Q.** With trypsin as the substance, how does the “viscosity of bovine vitreous” value read?
**A.** The value was “lower viscosity”.
